# Test system: six V600E BRAF melanoma cell lines
# Assay: Screening of recombinant RTK ligands for ability to confer resistance to BRAFi (PLX4720) or MEKi (PD184352) (Table 4)
# Type: cell-based, human
# Design: ability of recombinant RTK ligand to confer resistance / ability of recombinant RTK ligand to confer resistance (screening value): scale not given here
# Protocol: HGF is the only one that can substantially confer drug resistance to the cell lines.
# The complexity of the tumor microenvironment is much greater than an in vitro co-culture system. Therefore, the inventors explored whether the activation of other RTKs could result in a similar resistance as that observed with the activation of MET. To this end, six V600E BRAF melanoma cell lines were tested for their resistance to either BRAFi (PLX4720) or MEKi (PD184352) after the addition of 22 RTK ligands that have the potential of activating almost all known RTKs. […] The activation of a selected subset of these RTKs was confirmed by western blotting and by high throughput tyrosine kinase phosphorylation profiling.
molecule,measurement,setting,value
"VEGF-C (protein, UniProt P49767 112-227, looked up) Vascular endothelial growth …: AHYNTEILKSIDNEWRKTQCMPREVCIDVGKEFGVATNTFFKPPCVSVYRCGGCCNSEGLQCMNTSTSYLSKTLFEITVPLSQGPKPVTISFANHTSCRCMSKLDVYRQVHSIIRR",ability of recombinant RTK ligand to confer resistance,"A2058, PD184352 - 1 uM, ligand 1.6 ng/ml",1.01
same,ability of recombinant RTK ligand to confer resistance,"A2058, PD184352 - 1 uM, ligand 6.25 ng/ml",1.02
same,ability of recombinant RTK ligand to confer resistance,"A2058, PD184352 - 1 uM, ligand 25 ng/ml",1.01
same,ability of recombinant RTK ligand to confer resistance,"A2058, PD184352 - 1 uM, ligand 100 ng/ml",0.99
same,ability of recombinant RTK ligand to confer resistance,"A2058, PD184352 - 1 uM, ligand 400 ng/ml",0.94
same,ability of recombinant RTK ligand to confer resistance,"A2058, PLX4720 - 2 uM, ligand 1.6 ng/ml",1.03
same,ability of recombinant RTK ligand to confer resistance,"A2058, PLX4720 - 2 uM, ligand 6.25 ng/ml",1.04
same,ability of recombinant RTK ligand to confer resistance,"A2058, PLX4720 - 2 uM, ligand 25 ng/ml",1.05
same,ability of recombinant RTK ligand to confer resistance,"A2058, PLX4720 - 2 uM, ligand 100 ng/ml",1.04
same,ability of recombinant RTK ligand to confer resistance,"A2058, PLX4720 - 2 uM, ligand 400 ng/ml",1.02
same,ability of recombinant RTK ligand to confer resistance,"C32, PD184352 - 1 uM, ligand 1.6 ng/ml",1.06
same,ability of recombinant RTK ligand to confer resistance,"C32, PD184352 - 1 uM, ligand 6.25 ng/ml",1.03
same,ability of recombinant RTK ligand to confer resistance,"C32, PD184352 - 1 uM, ligand 25 ng/ml",1.16
same,ability of recombinant RTK ligand to confer resistance,"C32, PD184352 - 1 uM, ligand 100 ng/ml",1.00
same,ability of recombinant RTK ligand to confer resistance,"C32, PD184352 - 1 uM, ligand 400 ng/ml",1.07
same,ability of recombinant RTK ligand to confer resistance,"C32, PLX4720 - 2 uM, ligand 1.6 ng/ml",0.94
same,ability of recombinant RTK ligand to confer resistance,"C32, PLX4720 - 2 uM, ligand 6.25 ng/ml",1.09
same,ability of recombinant RTK ligand to confer resistance,"C32, PLX4720 - 2 uM, ligand 25 ng/ml",1.06
same,ability of recombinant RTK ligand to confer resistance,"C32, PLX4720 - 2 uM, ligand 100 ng/ml",1.08
same,ability of recombinant RTK ligand to confer resistance,"C32, PLX4720 - 2 uM, ligand 400 ng/ml",1.08
same,ability of recombinant RTK ligand to confer resistance,"Colo 829, PD184352 - 1 uM, ligand 1.6 ng/ml",0.97
same,ability of recombinant RTK ligand to confer resistance,"Colo 829, PD184352 - 1 uM, ligand 6.25 ng/ml",1.02
same,ability of recombinant RTK ligand to confer resistance,"Colo 829, PD184352 - 1 uM, ligand 25 ng/ml",0.94
same,ability of recombinant RTK ligand to confer resistance,"Colo 829, PD184352 - 1 uM, ligand 100 ng/ml",0.95
same,ability of recombinant RTK ligand to confer resistance,"Colo 829, PD184352 - 1 uM, ligand 400 ng/ml",0.90
same,ability of recombinant RTK ligand to confer resistance,"Colo 829, PLX4720 - 2 uM, ligand 1.6 ng/ml",0.99
same,ability of recombinant RTK ligand to confer resistance,"Colo 829, PLX4720 - 2 uM, ligand 6.25 ng/ml",1.00
same,ability of recombinant RTK ligand to confer resistance,"Colo 829, PLX4720 - 2 uM, ligand 25 ng/ml",0.92
same,ability of recombinant RTK ligand to confer resistance,"Colo 829, PLX4720 - 2 uM, ligand 100 ng/ml",0.95
same,ability of recombinant RTK ligand to confer resistance,"Colo 829, PLX4720 - 2 uM, ligand 400 ng/ml",0.90
same,ability of recombinant RTK ligand to confer resistance,"G-361, PD184352 - 1 uM, ligand 1.6 ng/ml",0.97
same,ability of recombinant RTK ligand to confer resistance,"G-361, PD184352 - 1 uM, ligand 6.25 ng/ml",0.97
same,ability of recombinant RTK ligand to confer resistance,"G-361, PD184352 - 1 uM, ligand 25 ng/ml",0.91
same,ability of recombinant RTK ligand to confer resistance,"G-361, PD184352 - 1 uM, ligand 100 ng/ml",0.90
same,ability of recombinant RTK ligand to confer resistance,"G-361, PD184352 - 1 uM, ligand 400 ng/ml",0.89
same,ability of recombinant RTK ligand to confer resistance,"G-361, PLX4720 - 2 uM, ligand 1.6 ng/ml",1.01
same,ability of recombinant RTK ligand to confer resistance,"G-361, PLX4720 - 2 uM, ligand 6.25 ng/ml",0.97
same,ability of recombinant RTK ligand to confer resistance,"G-361, PLX4720 - 2 uM, ligand 25 ng/ml",0.92
same,ability of recombinant RTK ligand to confer resistance,"G-361, PLX4720 - 2 uM, ligand 100 ng/ml",0.88
same,ability of recombinant RTK ligand to confer resistance,"G-361, PLX4720 - 2 uM, ligand 400 ng/ml",0.85
same,ability of recombinant RTK ligand to confer resistance,"SK-MEL-5, PD184352 - 1 uM, ligand 1.6 ng/ml",0.97
same,ability of recombinant RTK ligand to confer resistance,"SK-MEL-5, PD184352 - 1 uM, ligand 6.25 ng/ml",0.36
same,ability of recombinant RTK ligand to confer resistance,"SK-MEL-5, PD184352 - 1 uM, ligand 25 ng/ml",0.96
same,ability of recombinant RTK ligand to confer resistance,"SK-MEL-5, PD184352 - 1 uM, ligand 100 ng/ml",0.98
same,ability of recombinant RTK ligand to confer resistance,"SK-MEL-5, PD184352 - 1 uM, ligand 400 ng/ml",0.33
same,ability of recombinant RTK ligand to confer resistance,"SK-MEL-5, PLX4720 - 2 uM, ligand 1.6 ng/ml",0.95
same,ability of recombinant RTK ligand to confer resistance,"SK-MEL-5, PLX4720 - 2 uM, ligand 6.25 ng/ml",0.83
same,ability of recombinant RTK ligand to confer resistance,"SK-MEL-5, PLX4720 - 2 uM, ligand 25 ng/ml",0.87
same,ability of recombinant RTK ligand to confer resistance,"SK-MEL-5, PLX4720 - 2 uM, ligand 100 ng/ml",0.92
same,ability of recombinant RTK ligand to confer resistance,"SK-MEL-5, PLX4720 - 2 uM, ligand 400 ng/ml",0.85
same,ability of recombinant RTK ligand to confer resistance,"SK-MEL-28, PD184352 - 1 uM, ligand 1.6 ng/ml",1.09
same,ability of recombinant RTK ligand to confer resistance,"SK-MEL-28, PD184352 - 1 uM, ligand 6.25 ng/ml",0.95
same,ability of recombinant RTK ligand to confer resistance,"SK-MEL-28, PD184352 - 1 uM, ligand 25 ng/ml",0.90
same,ability of recombinant RTK ligand to confer resistance,"SK-MEL-28, PD184352 - 1 uM, ligand 100 ng/ml",1.08
same,ability of recombinant RTK ligand to confer resistance,"SK-MEL-28, PD184352 - 1 uM, ligand 400 ng/ml",0.85
same,ability of recombinant RTK ligand to confer resistance,"SK-MEL-28, PLX4720 - 2 uM, ligand 1.6 ng/ml",1.05
same,ability of recombinant RTK ligand to confer resistance,"SK-MEL-28, PLX4720 - 2 uM, ligand 6.25 ng/ml",0.94
same,ability of recombinant RTK ligand to confer resistance,"SK-MEL-28, PLX4720 - 2 uM, ligand 25 ng/ml",0.98
same,ability of recombinant RTK ligand to confer resistance,"SK-MEL-28, PLX4720 - 2 uM, ligand 100 ng/ml",1.01
same,ability of recombinant RTK ligand to confer resistance,"SK-MEL-28, PLX4720 - 2 uM, ligand 400 ng/ml",0.89

# — patent US20140348819A1, “Methods of Treating Cancer” (Dana-Farber Cancer Institute, Inc., priority 2011, published 2014)
